Laboratory results taken from the DeepSol protein solubility set.

Test: soluble on expression in E. coli; label from the status in PepcDB or PDB records

Q: For “MATSFYTGGGEDGDGFNPRVHARIAEREGFQLASGSEDPRTLFVANLDPAITDEFLATLFNQIGAVMKAKIIFEGLNDPYAFVEFSDHNQATLALQSHNGRELLEKEMHVTWAFEPREPGENRSKPETSRHFHVFVGDLCSEIDSTKLREAFVKFGEVSEAKIIRDNNTNKGKGYGFVSYPRREDAERAIDEMNGAWLGRRTIRTNWATRKPDEDGERGGDRGDRRGGGGGGRDRYHNQSEKTYDEIFNQAAADNTSVYVGNIANLGEDEIRRAFDRFGPINEVRTFKIQGYAFVKFETKESAARAIVQMNNADIGGQIVRCSWGKSGDSGKPSERGSGGGGGSGNYGYGYGNSGGGGGSGGPGNSQFSNFNQRPPPSGNGGSGGGSGGQNNQYWQYYSQYYNNPHLMQQWNNYWQKDGPPPPPAAAASSTGGN”, which “soluble on expression in E. coli” value is on record?
A: not soluble

Q: With “MGSDKIHHHHHHMLESTKQFLKKYNINDRVLKLYETAMNDIQNQFKILDDIREFNQLKVLNAFQEERISEAHFTNSSGYGYGDIGRDSLDAVYARVFNTESALVRPHFVNGTHALGAALFGNLRPGNTMLSVCGEPYDTLHDVIGITENSNMGSLKEFGINYKQVDLKEDGKPNLEEIEKVLKEDESITLVHIQRSTGYGWRRALLIEDIKSIVDCVKNIRKDIICFVDNCYGEFMDTKEPTDVGADLIAGSLIKNIGGGIAPTGGYLAGTKDCIEKTSYRLTVPGIGGECGSTFGVVRSMYQGLFLAPHISMEALKGAILCSRIMELAGFEVMPKYDEKRSDIIQSIKFNDKDKLIEFCKGIQTGSPIDSFVSCEPWDMPGYTDQVIMAAGAFIQGSSIELSADAPIREPYIAYLQGGLTFDHAKIGILIALSRIVK” as the sequence, how does the “soluble on expression in E. coli” value read?
A: not soluble

Q: Which “soluble on expression in E. coli” value does the source give for “MGHHHHHHSHIGSFPLPKGITREWVERNLHTKEYEEMVQRAFLMKAKVLDVPTYPQFRDMIEMFMQPIKANQVEPYLIDERKAVIPELEYVEKMSVEAVRVCITGPFELYYREFGGVIYEDILLNLAESVRRFVENAAKHENVVCISIDEPSLGIAPDLQPDEELLQKALDYKVKQDVQIHLHEPLYYEKILETSVDVIGIECAKKPENMDFIDAEAVASAEKKLRIGVARSDIDGIIAEFNALHGVNAWGNEELISLAIDEIEPVEKIAERISKAKERFGDLLAYIGPDCGLFSFPSQELALQLLENVRKAVRE” here?
A: not soluble

Q: Which “soluble on expression in E. coli” value does the source give for “GRDGNNLNNPVLLLDTFDFGPREDNWFFYPGGNIGLYCPYSSKGAPEEDSAMVFVSNEVGEHSITTRDLSVNENTIIQFEINVGCSTDSSSADPVRLEFSRDFGATWHLLLPLCYHSSSLVSSLCSTEHHPSSTYYAGTTQGWRREVVHFGKLHLAGSVRFRWYQGFYPAGSQPVTWAIDNVYIGPQCEEMCYGHGSCINGTKCICDPGYSGPTCKISTKNPDFLKDDFEGQLESDRFLLMSGGKPSRKCGILSSGNNLFFNEDGLRMLVTRDLDLSHARFVQFFMRLGCGKGVPDPRSQPVLLQYSLNGGLSWSLLQEFLFSNSSNVGRYIALEMPLKARSGSTRLRWWQPSENGHFYSPWVIDQILIGGNISGNTVLEDDFSTLDSRKWLLHPGGTKMPVCGSTGDALVFIEKASTRYVVTTDIAVNEDSFLQIDFAASCSVTDSCYAIELEYSVDLGLSWHPLVRDCLPTNVECSRYHLQRILVSDTFNKWTRITLPLPSYTRSQATRFRWHQPAPFDKQQTWAIDNVYIGDGCLDMCSGHGRCVQGSCVCDEQWGGLYCDEPETSLPTQLKDNFNRAPSNQNWLTVSGGKLSTVCGAVASGLALHFSGGCSRLLVTVDLNLTNAEFIQFYFMYGCLITPSNRNQGVLLEYSVNGGITWNLLMEIFYDQYSKPGFVNILLPPDAKEIATRFRWWQPRHDGLDQNDWAIDNVLISRLENLYFQ” here?
A: soluble

Q: For “MGHHHHHHSHMTNQNVLLNISGVKFVLRIPNAVNLSLINREYEAFNNAQAYRAGLNVETPVLDAKSGVKLTRYLENSNTLSQIQLNEQSCLSQVVNNLYRLHNSEFVFRNVFSVFDEFRQYFSLLENKSAFYQADSRMDKLSAVFWQFEEINKEVILRPCHNDLVPENMLLQDDRLFFIDWEYSGLNDPLFDIATIIEEAHLSKEAADFLLETYCNQTNKYHKTEFQIAHKRLKIHRFCQNVLWFLWTKVKEEHGENFGDYALKRLDAAFKLLEELP”, which “soluble on expression in E. coli” value is on record?
A: soluble

Q: With “MKKDWQEQLPLNHIRDIKTVSGGDVNEAFKVTTEDDVYFLLVQRNRDKSFYAAEIAGLNAFEEAGVTAPHVIDSGEINGDAFLILSYLDEGTTGSQRELGQLVAKMHSQQQSDGKFGFDLPHEGGDISFDNTWSDSWIEIFVERRMDHLRDELMRKGLWNDEDNKVYEQVRTVMVNELENHNSNPSLLHGDLWGGNYMFLTDGSPALFDPAPFYGDREFDLGITTVFGGFTREFYDEYEKHYPLGKGSRKRLEFYRLYLFMVHLLKFGGMYASSVNRSMDEILALEHHHHHH” as the sequence, how does the “soluble on expression in E. coli” value read?
A: soluble

Q: With “NCRLFIGGIPKMKKREEILEEIAKVTEGVLDVIVYASAADKMKNRGFAFVEYESHRAAAMARRKLMPGRIQLWGHQIAVDWAEPEIDVDEDVMETV” as the sequence, how does the “soluble on expression in E. coli” value read?
A: soluble

Q: Which “soluble on expression in E. coli” value does the source give for “MASVALALWERVLANVVPRQSIAVIGAGVSGLSAAWLLSHRHDVTLYEADNRLGGHANTIIAEGVAVDTGFIVYNEPNYPNLTALFRHIGVETTETDMSFGVSLDGGALEYSSTKLLAQKRNVANPRFIKMLLDVVRFYREGRNIPADLEQGGLCRLDDYLRRQGFGRAFQEDHLLPQAAAIWSASMRDIREFPAAALLRFFDNHGLMLPIDKRPIWRTVVGGSARYVEKLAAGVSGPILTGRPVKAIHRGPDGVRIEDATGETRAFDHVVIGAHADQALSMLAAPSAEERELLGAFRYSRNRAVLHSDPALMPRRRGAWASWNHVGRRGEDGEGGVTYWMNILQPLGVERPYFLSLNPMQDPAGLMHDQVYEHPLFDGPAMLAQRRLWSLQGRRRTWFCGAYFGSGFHEDGLQAGLAVAEQLGGVRRPWLVPNPSGRIVLDVADQAADRELVALEHHHHHH” here?
A: not soluble

Q: Which “soluble on expression in E. coli” value does the source give for “GPGSMRRTFKKLGLSALRACRGAGAAGTAASAHTSGFARVPSMSAPTALTVPRRSASDAALADATRRELEEEMGRSDKPEQPTPPAGWQVVRKPGTCTFDLTKSFEGEDLVVRYSTNQDSDKANSHNIFVYITQKNGQTMQADLSIEEGELVLNNIRFYDEAALAKDTGAEAEAKRNELYTGPLVHELDYDLLNCVMTYLEKRGVDEKLGEFVVLYSFWAEQQDYEAWLTTMNKFAS” here?
A: not soluble

Q: With “MGSDKIHHHHHHMSKIILVVAAHTDDEAMGCGGTIARHIAEGDEVHLLFMTDGVGSREVLAEEVIDRSSAAQQAAKILGVSSFTNLSFPDNRMDSVALLDIVKEVEVKISEIKPEIIYTHHIGDLNIDHQVTHKAVMTACRPQPGFSVKTIYAFEVLSSTEWQTSNSALFIPNVFIDITDYLPVKMDASKAYYNEMREVPHSRSLQHIELLARHRGYTVGVHAAEAFMLVREIK” as the sequence, how does the “soluble on expression in E. coli” value read?
A: not soluble

Q: For “MSLYEITQYRLPHLSESAEALCHADKRPVFVGDSAAKPGLQLQQDETRWHSARQHRWSTPLAHQLQRSVQRLLLADNCEGKLTVWVDDFYGSNDSRAVVAGHWEYKSQDSQTVLKGTFTESTPLKSDGYPALVNALDEAWLNVMDTISLGVGQKLAREGHHHHHH”, which “soluble on expression in E. coli” value is on record?
A: soluble

Q: Which “soluble on expression in E. coli” value does the source give for “MSLADIIIHNGSLITFDEARPQAQALAIQGGMIAAVGSDAEILALAGPETRLIDAGGGTVLPGFIDSHVHLFGGSVELDCLSLYGVKGLDAMRAAIQPYAQANPDDALVFCVMADYDILGTGHTLTRHDLDSILADRPLAMFAPDHHTVWANTAALEATGLLQGGEVDAGSLIVLGEDGLANGELLEPGAYGPILGLTRHGGREMLGLTTGKDPEPPATPDQRARDKDVIARGLAHCAAQGITGLHLMDGNRYQLELLTELEAEGRLLCRCEVPFHMKGTDPVERMTAEAPAMRAAYRGDKVRCNHLKMFIDGVIESGTALMLRPYPGELGANDNTGDEVFTQEHFTACCVEADRLGFQIAVHAIGDAGVRRTIDAFEAARRANGTRDSRHRIEHIEVIHPDDIPRLAELDIVASLQPGHAPRGHVFPPGAVGQYLHPDQIVGAYAWQTIRETGARVVFSTDWPVIPVDVMPSLRAAIAPLDLGPDWPDQSQSLMDTLASYTRDNAWVEFNEDSKGRLKVGMAADIAVLSHDLTALAPDDITQAAAMVTIMDGAVTYQREGHHHHHH” here?
A: soluble

Q: Which “soluble on expression in E. coli” value does the source give for “MAKYQSMLVVIDPNQDDQPALRRAVYLHQRIGGRIKAFLPIYDFSYEMTTLLSPDERTAMRQGVIAQRTAWIREQAKFYLESGVPIDVKVVWHNRPFEAIIQEVVSEKHDLLLKMAHQHDKLEAVIFTPTDWHLLRKCPCPVWMVKDQPWPEGGKALVAVNLASEENYHNTLNEKLVRETLSLAEEVNHTEVHLIGAYPVTPINIAIELPDFDPSVYNDAIRGQHLLAMKALRQKFGIDEKFTHVEKGLPEEVIPDLAEHLQAGIVVLGTVGRTGLSAAFLGNTAEQVVDHLRCDLLVLKPEAYQTPVELDDDDDD” here?
A: not soluble

Q: With “CPEIEAQGNECLKEYGGDVGFGFCAPRIFPTICYTRCRENKGAKGGRCRWGQGSNVKCLCDFCGDTPQ” as the sequence, how does the “soluble on expression in E. coli” value read?
A: soluble

Q: For “AKSVVSHSLTTLGVEVSKPPPQHDKIEASEPSFPLHESILKVVEEEWQQIDRQLPSVACRYPVSSIEAARILSVPKVDDEILGFISEATPAAATQASSTESCDKHLDLALCRSYEAAASALQIAAHTAFVAKSLQADISQAAQIINSDPSDAQQALRILNRTYDAASYLCDAAFDEVRMSACAMGSSTMGRRYLWLKDCKISPASKNKLTVAPFKGGTLFGGEVHKVIKKRGNKQ”, which “soluble on expression in E. coli” value is on record?
A: soluble

Q: With “MAHHHHHHMVMNDITKSDTHERKDEVTMDKGGMFNNFFECMNEQMKRIDRYHEDMSRMMNSMRTHYFSDELSKYFPSRRSLLDYDLGDARRNDLFFGKPQFLMDRFKNVPPMDVVDKDKEIEIKIDVPGLSKDNVQINLYNRNLEVSGDFKKTEETRDDEQRYYVKERSQTSFYRSFQLPENVCEDNIKATFKDGVLKIDIPKKDVLPEKKKKIEIQ” as the sequence, how does the “soluble on expression in E. coli” value read?
A: soluble

Q: With “MGSSHHHHHHSSGENLYFQGHMSVSAFNRRWAAVILEALTRHGVRHICIAPGSRSTPLTLAAAENSAFIHHTHFDERGLGHLALGLAKVSKQPVAVIVTSGTAVANLYPALIEAGLTGEKLILLTADRPPELIDCGANQAIRQPGMFASHPTHSISLPRPTQDIPARWLVSTIDHALGTLHAGGVHINCPFAEPLYGEMDDTGLSWQQRLGDWWQDDKPWLREAPRLESEKQRDWFFWRQKRGVVVAGRMSAEEGKKVALWAQTLGWPLIGDVLSQTGQPLPCADLWLGNAKATSELQQAQIVVQLGSSLTGKRLLQWQASCEPEEYWIVDDIEGRLDPAHHRGRRLIANIADWLELHPAEKRQPWCVEIPRLAEQAMQAVIARRDAFGEAQLAHRICDYLPEQGQLFVGNSLVVRLIDALSQLPAGYPVYSNRGASGIDGLLSTAAGVQRASGKPTLAIVGDLSALYDLNALALLRQVSAPLVLIVVNNNGGQIFSLLPTPQSERERFYLMPQNVHFEHAAAMFELKYHRPQNWQELETAFADAWRTPTTTVIEMVVNDTDGAQTLQQLLAQVSHL” as the sequence, how does the “soluble on expression in E. coli” value read?
A: soluble

Q: For “MLGSRNIKFSVQIFKKRRSNCNVRCVVCGREIETGSLCGKCMVEKEEVAKIDEFEITVCSRCNLIRLGNRWVERSVEEVIEEMVLRNARVVEEFNVTEVAISQEHCVFRGEISGDEVKILVPLKYRINKVLCEKCSREAGGYYESIVQLRAAGRELSDEEIEKALEIVDEVISSAPEDQKAFISKLERKREGVNIFFGSRNIGKKVSRMIMKKLGGSITESKKLHTRIDGRDVYRFTYSVKLPEYREGDIVEKEGRFAVVRNSVAGKGLDILTGKTVNLGNERVAVRREDLKSGVVVNADPNAVEVVCEDGRLVTTPKPSGAEIGAEVKVFEINGKFFSVYEGGQSSEELEHHHHHH”, which “soluble on expression in E. coli” value is on record?
A: soluble

Q: Which “soluble on expression in E. coli” value does the source give for “RSLQLDKLVNEMTQHYENSVPEDLTVHVGDIVAAPLPTNGSWYRARVLGTLENGNLDLYFVDFGDNGDCPLKDLRALRSDFLSLPFQAIECSLARIA” here?
A: soluble
